From article doi:10.1101/467431 (bioRxiv, 2018) come the findings set out here.

Like-named read-outs stand apart in the source and are kept apart here.

Holding throughout (assay): ITC
On the technique in general: ITC needs no label: the signal is the heat of the interaction.

Experiment [1] has as its target T1, Sca2 C-terminal fragment, construct Sca_(868-1515) (Rickettsia conorii, UniProt Q92JF7 868-1515).
T1 sequence: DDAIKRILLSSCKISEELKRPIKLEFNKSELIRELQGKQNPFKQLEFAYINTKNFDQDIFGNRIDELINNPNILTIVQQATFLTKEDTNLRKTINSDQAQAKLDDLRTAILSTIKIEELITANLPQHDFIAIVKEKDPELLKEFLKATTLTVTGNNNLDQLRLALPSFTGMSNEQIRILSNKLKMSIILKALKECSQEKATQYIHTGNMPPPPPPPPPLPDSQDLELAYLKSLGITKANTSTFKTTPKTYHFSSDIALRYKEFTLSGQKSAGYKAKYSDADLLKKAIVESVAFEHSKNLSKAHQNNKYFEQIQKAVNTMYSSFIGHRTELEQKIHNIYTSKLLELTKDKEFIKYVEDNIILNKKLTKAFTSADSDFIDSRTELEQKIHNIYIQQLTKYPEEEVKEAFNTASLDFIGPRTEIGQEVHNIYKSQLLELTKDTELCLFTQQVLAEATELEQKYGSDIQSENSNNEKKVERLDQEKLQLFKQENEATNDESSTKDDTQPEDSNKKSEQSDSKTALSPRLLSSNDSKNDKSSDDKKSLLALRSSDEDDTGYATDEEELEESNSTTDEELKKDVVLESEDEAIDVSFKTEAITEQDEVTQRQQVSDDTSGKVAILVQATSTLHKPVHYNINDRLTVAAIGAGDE

Experiment [2] addresses T2, monomeric actin (LatB-actin) (UniProt P68135 1-377).
The target in experiment [3] is T2, monomeric actin (LatB-actin). The source holds these as a separate data set.

B1: Sca2 N-terminal fragment, construct Sca_(34-670) (domain or fragment)
chain: ASFKDLVSKTPAWEKHNSTQQQNIWKDLTPNEKIKKWQEAALVPSFTQAQNDLGIKYKETDLSSFLDNTRHKARQARAEILLYIERVKQQDFDTKKQAYINQGVVPTDIEAATNLGISYDPSKIDNNVEHDQKVRRAEKDKKAVIELYVSSINRGIKYKHYVDNDIIPEIQEVRTALNMNKDDAQSFVASIRTEIMENAKGQYIADSHIPTEKELKKKFGISRDDNRDGYIKSIRLKVMDKEKPQYIADSHIPTEKELEQKFGADKGEATNYIASIATQMMLDKKSYYIDNNIIPNADELMNEFKIGPVKATSYINQIRAGIEANQFLNNNDTTKPSTGRSQKKSGSKNDHWYMSNQSINNTGTSARIVTGREKKQRYFFDPISTFKTYFNTKASKGNLTQSQHNINRIIQQEENIEEFKNLIKTDPIAALTLQVDSSYKQEAVTTILSDFNDDTIQRVLFSNDKGKLDFNTNIDVKNRPILQELLENSSSEEKTKFAERIQDYATRNISNSQFEEKARLDLIKLAASKDKSSVENFLTLQLELKNRMQPYVVNSVYILTPEIVKEINIELKNKGLIRDSLTKDYMIKLAKEVNNHTLNSVIKVILSDSKILSNETNKILGLAVSNNANNLEQTQSG
For orientation: Kd means the free concentration of one partner at which half of the binding sites on the other are occupied at equilibrium, for simple one-to-one binding. Higher therefore signals lower affinity. What is called stoichiometry N is the number of molecules, sites or subunits per partner or assembly. Molecule B1 yielded a Kd in experiment [1] of 7 µM. In experiment [2], the “stoichiometry N” value was 2 actin subunits per Sca_(34-670).

B2: MBP fusion of the WH2 domain of WAVE1 (WAVE1 WH2a) (domain or fragment)
chain: AAANNNNNNNNNNLGARSVLLEAIRKGIQLRKV
Turning to B2, in experiment [2], binding was put at a Kd of 0.38 µM and the “stoichiometry N” value is 1.07.

B3: Sca2 construct Sca_(869-1060) (domain or fragment)
chain: DAIKRILLSSCKISEELKRPIKLEFNKSELIRELQGKQNPFKQLEFAYINTKNFDQDIFGNRIDELINNPNILTIVQQATFLTKEDTNLRKTINSDQAQAKLDDLRTAILSTIKIEELITANLPQHDFIAIVKEKDPELLKEFLKATTLTVTGNNNLDQLRLALPSFTGMSNEQIRILSNKLKMSIILKALK
Turning to B3, in experiment [3], the Kd was determined as 10.8 µM and the “stoichiometry N” value is 1 LatB-actin monomer per Sca_(869-1060).
